These results are taken from patent publication US8546353B2, “Compounds and combinations” (priority 2010, dated 2013).

“Also recorded” adds a separate entry of the source.

For data set [1], the system named is hematopoietic cell populations of mouse peripheral blood. Put plainly: Immunophenotypic profiling of peripheral blood by flow cytometry. As to conditions: pegfilgrastim 25 μg s.c. −5 days. The data set is classed as in vivo, C57BL/6J mice. As to the method: (§1) Adult (8-10 weeks) female, age-matched C57BL/6J (Jackson stock nr 000664, the Charles River Laboratories) CD45.2 mice were used in the in vivo mobilization experiments. The acclimatization period was always at least 7 days before the experiments. The animals were individually identified by ear and tail numbering and were housed in a Scantainer (Scanbur A/S, Karlslunde, Denmark) in Makrolon III cages. The animal room temperature was 21±2° C. and humidity was between 40-60%. Lightning was artificial, 12 h light and 12 h dark. The mice were provided with irradiated fodder and normal tap water ad libitum. Average weight of all animals in the experiments was 18.8±1.5 g. No formal randomization or grouping was done. Animals were randomly allocated to the study groups. All animals were weighed before the first dosing and in the end of each study.
(§2) Sterile filtered PBS (pH 7.2) served as vehicle in all studies and was injected intravenously in the tail vein in similar volumes (50 or 100 μl) and time-points as the other test items within each study. Recombinant pegylated granulocyte-colony stimulatory factor (G-CSF), pegfilgrastim (Neulasta™, Amgen), with the stock concentration 10 mg/ml, was diluted immediately before the injections in sterile filtered PBS (pH 7.2) to yield a 0.25-0.5 mg/ml dosing solution. The animals obtained 25 μg pegfilgrastim (Neulasta™) subcutaneously at a dose volume of 50 or 100 μl on study day 0. The LMW hyaluronic acid derivatives HA and 6-O-S HA were prepared for injections into sterile filtered PBS in 5-10 mg/ml solutions and injected intravenously in the tail vein in dose volumes of 50 or 100 μl yielding 500 μg doses/mouse.
The LMW hyaluronic acid (HA) derivatives were tested for capability to mobilize hematopoietic stem and progenitor cells to peripheral blood after 500 μg i.v. injections at the following time-points: 4h, 1d, 2d, 3d and 5d post-injections. Repetitive dosing was tested with daily 500 μg i.v. injections and sampling was done either on experimental days 2 (after 3 doses) or 5 (after 6 doses) after the first injection on day 0. Abnormal clinical signs or mortality was not observed with the LMW HA derivatives with 500 μg doses. The LMW HA derivatives were also tested in combination with a single dose of pegfilgrastim (Neulasta™). In combinatorial G-CSF+LMW HA studies, pegfilgrastim was always injected s.c. at experimental day 0 and the LMW HA derivatives were administered i.v. as • a) single doses of 500 μg at experimental day 3, • b) single doses of 500 μg 1 or 4 hours before sampling, or • c) as repetitive doses of 500 μg daily from experimental day 0-5 (in total 6 doses).
Flow cytometric analysis was performed on FACSAria (Becton Dickinson Biosciences) with a 488-nm argon laser for (PE, FITC and PE-Cy7), a 633-nm hene laser for (APC and APC-Cy7). Fluorescense was measured using 530/30-nm (FITC), 585/42-nm (PE), 780/60-nm (PE-Cy7), 660/20-nm (APC) and 780/60 (APC-Cy7) bandpass filters.
Peripheral mouse blood was diluted 1:5 in 0.9% NaCl (Baxter). Fluorescence labels (ebiosciences, except APC-CD45 BD Biosciences): 0.04 μg phycoerythrin (PE)-conjugated CD11c (dendritic cells; clone N418; cat#12-0114), fluorescein isothiocyanate (FITC)-conjugated 0.3 μg TER-119 (erythroid cells; clone TER-119; cat#11-5921), 0.1 allophycocyanin (APC)-conjugated CD314 (natural killer cells; clone CX5; 17-5882), 0.08 μg APC-Cyanine 7 (Cy7)-conjugated CD3e (T cells; clone 17A2; cat#27.0032) and 0.04 μg PE-Cy7 conjugated CD45R (B cells; RA3-6B2; 25-0452) were combined in one tube and 0.08 μg PE-conjugated CD115 (for monocytes and macrophages; clone AFS98; cat#12-1152), 0.2 μg FITC-conjugated-CD41 (megakaryocytes and hematopoietic progenitors; clone MWReg30; cat#11-0411), 0.08 μg APC-conjugated CD45 (leukocytes; clone 30-F11; cat#559864) and 0.03 μg PE-Cy7-conjugated LY-6G (neutrophils; clone RB6-8C5; cat#25-5931) were combined in another tube, incubated for 30 minutes on ice protected from light. […]
For orientation: In flow cytometry, cells or beads pass a laser one at a time.

In data set [2] the test system is SLAM+ cells (CD150+CD48−CD45+) in peripheral blood. The experiment in a line: SLAM immunophenotyping by flow cytometry. The data set is classed as in vivo, C57BL/6J mice. The following applies: pegfilgrastim 25 μg s.c. day 0; combination + single 500 μg i.v. one hour before sampling (FIG. 14). As to the method: as §1, with “No formal randomization or grouping was done. Animals were randomly allocated to the study groups. All animals were weighed before the first dosing and in the end of each study.” left out
The enrichment of long-term repopulating (LTR) hematopoietic stem cells was detected with representation of SLAM markers. […] CD45+ cells expressing CD150, but not CD48 cell surface markers were determined as a population highly enriched with LTR hematopoietic stem cells.
Although mobilization of HPCs may be of use for short-term repopulation in clinical settings, long-term repopulation and reconstitution of the hematopoietic cell system in a transplant recipient demands the presence of mobilized long-term repopulating hematopoietic stem cells (LTR-HSCs). […] The presence of SLAM (CD150+CD48−CD45+) positive cells in mouse blood was determined by flow cytometry after vehicle, pegfilgrastim or pegfilgrastim +6-O-S LMW HA dosing. […]

Data set [3] concerns hematopoietic progenitor cells (HPCs) in the bone marrow. Put plainly: CFU assay on bone marrow mononuclear cells. The data set is classed as in vivo, C57BL/6J mice. The following applies: single 25 μg s.c. at day 0, samples at day 5, 1×10^5 mononuclear cells. As to the method: as §1, with “All animals were weighed before the first dosing and in the end of each study.” left out
Myeloid hematopoietic progenitor cells were further enumerated by the colony forming unit (CFU/CFC) assay. Progenitor cells that are restricted in their lineage potential and that have limited self-renewal capability can be detected in colony-forming cell (CFC) assays using semisolid media such as methylcellulose, agar or collagen. Progenitors that read out in culture assays can either be multipotent, e.g. capable of generating progeny of multiple blood cell types, or restricted to one or two lineages, e.g. erythrocytes, granulocytes, monocyte/macrophages or platelets. […]

The subject of data set [4] is white blood cell (WBC) contents in peripheral blood. The experiment in a line: Leukocyte content in blood, automated blood cell counter Sysmex XT-2000i. It counts as in vivo, C57BL/6J mice. The following applies: single dose (HA derivatives 500 μg i.v.; pegfilgrastim 25 μg s.c.); 5 days (FIG. 2C). How it is done: as §1
(§3) Sterile filtered PBS (pH 7.2) served as vehicle in all studies and was injected intravenously in the tail vein in similar volumes (50 or 100 μl) and time-points as the other test items within each study. […]
(§4) The leukocyte, erythrocyte and platelet contents were determined for all blood samples by automated blood cell counter Sysmex XT-2000i by diluting the mouse blood 1:4 with 0.9% NaCl.
(§5) Complete blood counts (numbers of white blood cells, mature red blood cells and platelets) of mouse peripheral blood were determined with automated blood cell counter.

Data set [5] concerns circulating hematopoietic progenitor cells (HPCs) in peripheral blood. Put plainly: Peripheral blood stem cell mobilization, colony forming unit (CFU) assay on peripheral blood mononuclear cells. The data set is classed as in vivo, C57BL/6J mice. As to the method:
as §1, §2
The LMW hyaluronic acid (HA) derivatives were tested for capability to mobilize hematopoietic stem and progenitor cells to peripheral blood after 500 μg i.v. injections at the following time-points: 4h, 1d, 2d, 3d and 5d post-injections. Repetitive dosing was tested with daily 500 μg i.v. injections and sampling was done either on experimental days 2 (after 3 doses) or 5 (after 6 doses) after the first injection on day 0. Abnormal clinical signs or mortality was not observed with the LMW HA derivatives with 500 μg doses. […]
Mononuclear cells were isolated by carefully overlaying 3 ml Ficoll-Paque® (GE Healthcare) with peripheral blood diluted 1:2 in phosphate buffered saline (PBS)-2 mM EDTA. […] Mononuclear cell yields were counted using a Bürker chamber.
Myeloid hematopoietic progenitor cells were further enumerated by the colony forming unit (CFU/CFC) assay. Progenitor cells that are restricted in their lineage potential and that have limited self-renewal capability can be detected in colony-forming cell (CFC) assays using semisolid media such as methylcellulose, agar or collagen. […]

The next data set relates to spleen. Put plainly: Spleen weights after mobilization studies. The following applies: 25 μg s.c. The data set is classed as in vivo. How it is done:
as §1
Sterile filtered PBS (pH 7.2) served as vehicle in all studies and was injected intravenously in the tail vein in similar volumes (50 or 100 μl) and time-points as the other test items within each study. Recombinant pegylated granulocyte-colony stimulatory factor (G-CSF), pegfilgrastim (Neulasta™, Amgen), with the stock concentration 10 mg/ml, was diluted immediately before the injections in sterile filtered PBS (pH 7.2) to yield a 0.25-0.5 mg/ml dosing solution. […]

In data set [6] the test system is red blood cell (RBC) contents in peripheral blood. The experiment in a line: Erythrocyte content in blood, automated blood cell counter Sysmex XT-2000i. The data set is classed as in vivo, C57BL/6J mice. The following applies: 25 μg s.c. As to the method:
as §1, §3, §4, §5

B1: pegfilgrastim (protein, chains of the INN, looked up)
chain: TPLGPASSLPQSFLLKCLEQVRKIQGDGAALQEKLCATYKLCHPEELVLLGHSLGIPWAPLSSCPSQALQLAGCLSQLHSGLFLYQGLLQALEGISPELGPTLDTLQLDVADFATTIWQQMEELGMAPALQPTQGAMPAFASAFQRRAGGVLVASHLQSFLEVSYRVLRHLAQP
modifications: N-terminal methionine, PEG
For the molecule B1, in data set [1] (combination + 500 μg i.v. 1 hour before sampling (FIG. 11A), listed as G-CSF), the “levels of circulating monocytes, neutrophils and eosinophils (MNEs) as a pool” value is given as “robust increase; also recorded: dramatically increased”. For the same molecule, in data set [1] (combination + 500 μg i.v. 1 hour before sampling (FIG. 11B)), the “granulocytes within the MNEs” value is “proliferated”. In addition, the “levels of monocytes and macrophages as a pool” value in data set [1] (combination + 500 μg i.v. 1 hour before sampling (FIG. 11C)) is given as “decreased”. The “levels of CD45+CD115+ progenitors” value in data set [1] (combination + 500 μg i.v. 1 hour before sampling (FIG. 12A)) was “increased”. In data set [1] (combination + 500 μg i.v. 1 hour before sampling (FIG. 12B)), the “levels of CD45+CD41+ progenitors” value was “decreased from control levels”. Also, in data set [1] (combination + 500 μg i.v. 1 hour before sampling (FIG. 12C)), the “levels of Ter-119+ proerythroblasts” value is given as “decrease”. Also, the “levels of megakaryocytes and platelets” value in data set [1] (combination + 500 μg i.v. 1 hour before sampling (FIG. 12D)) was “decreased levels of megakaryocytes and platelets”. Also, the “levels of peripheral blood lymphocytes” value in data set [1] (combination + 500 μg i.v. 1 hour before sampling (FIG. 13A)) is listed as “increased”. In addition, in data set [1] (combination + 500 μg i.v. 1 hour before sampling (FIG. 13B)), the “CD3+ T-cells within the lymphocyte population” value was “increase”. In data set [1] (combination + 500 μg i.v. 1 hour before sampling (FIG. 13C)), the “NK (CD314+) cell levels” value was “remained unaltered”. In addition, the “CD45R+ B-cells within the lymphocyte population” value in data set [1] (combination + 500 μg i.v. 1 hour before sampling (FIG. 13D)) was “decrease”. Also, the “levels of circulating SLAM+ cells (CD150+CD48−CD45+)” value in data set [2] is “dramatically increased”. The “number of HPCs in the bone marrow, decrease” value in data set [3] was “over 2 fold”. The “WBC counts 5 days after single dose” value in data set [4] is reported as “remained high”. Also, the “mean CFU colonies” value in data set [5] (Neulasta 25 μg s.c. day 0, sampling day 5, combination: 500 μg i.v. 1 hour before sampling (FIG. 10A)) is reported as 18.8 colonies/10^5 mononuclear cells. For the same molecule, in data set [5] (single 25 μg s.c.), the “time of peak of HPC mobilization after s.c. injection” value is 5 days. Besides, the “number of circulating HPCs in mouse peripheral blood, increase over background” value in data set [5] (single 25 μg s.c. at day 0, samples at day 5, CFU, 1×10^5 mononuclear cells) is 40-50 fold. Also, the “mobilization of circulating HPCs” value in data set [5] (single 25 μg s.c. injection (FIG. 9A)) is recorded as “robust mobilization of circulating HPCs”. Moreover, in the data set on spleen (3 days (FIG. 8A left panel)), the “spleen swelling 3 days after single s.c. injection” value is reported as “evident”. For the same molecule, the “spleen swelling two days after s.c. injection” value in the data set with spleen (two days) is on record as “evident”. In data set [6] (2 days), the “numbers of mature RBC 2 days after s.c. injection” value was “elevate the numbers of mature RBC”. Further, the “RBC elevation 5 days after s.c. injection” value in data set [6] (5 days, occasionally seen (FIG. 4C)) is given as “normalize back to control levels”.
